This test deals with T1, full-length human MICAL1 (human) (UniProt Q8TDZ2).
T1 sequence: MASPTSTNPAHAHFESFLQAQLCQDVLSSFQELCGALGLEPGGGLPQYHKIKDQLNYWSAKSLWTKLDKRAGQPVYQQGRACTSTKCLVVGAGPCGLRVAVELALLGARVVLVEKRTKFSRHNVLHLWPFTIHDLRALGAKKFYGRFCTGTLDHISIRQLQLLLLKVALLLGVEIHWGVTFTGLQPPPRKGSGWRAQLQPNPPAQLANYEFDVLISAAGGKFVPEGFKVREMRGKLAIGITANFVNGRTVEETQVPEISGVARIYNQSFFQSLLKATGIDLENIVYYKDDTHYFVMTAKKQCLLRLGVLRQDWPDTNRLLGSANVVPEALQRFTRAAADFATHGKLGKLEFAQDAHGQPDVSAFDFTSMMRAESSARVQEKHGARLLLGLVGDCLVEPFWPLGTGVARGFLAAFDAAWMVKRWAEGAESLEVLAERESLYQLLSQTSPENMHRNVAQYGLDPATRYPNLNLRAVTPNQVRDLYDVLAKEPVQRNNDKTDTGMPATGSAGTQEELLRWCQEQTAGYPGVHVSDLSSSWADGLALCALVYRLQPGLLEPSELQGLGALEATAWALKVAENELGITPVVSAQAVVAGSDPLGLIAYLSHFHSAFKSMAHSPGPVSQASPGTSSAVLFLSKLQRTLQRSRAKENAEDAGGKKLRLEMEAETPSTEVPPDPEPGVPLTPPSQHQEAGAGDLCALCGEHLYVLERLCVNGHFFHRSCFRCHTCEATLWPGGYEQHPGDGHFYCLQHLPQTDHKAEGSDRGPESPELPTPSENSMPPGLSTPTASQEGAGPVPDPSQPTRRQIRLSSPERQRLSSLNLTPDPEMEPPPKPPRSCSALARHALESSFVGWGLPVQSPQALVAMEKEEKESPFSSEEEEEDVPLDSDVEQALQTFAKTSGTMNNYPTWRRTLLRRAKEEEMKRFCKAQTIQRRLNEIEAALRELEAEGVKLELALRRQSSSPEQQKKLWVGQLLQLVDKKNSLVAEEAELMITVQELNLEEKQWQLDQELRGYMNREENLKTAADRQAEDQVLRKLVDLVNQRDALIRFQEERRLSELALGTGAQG

For the substance “human Rab8a 1-181 with the constitutively active mutation Q67L (from UniProt P61006 1-181) (domain or fragment)”, the fold enhancement of NADPH turnover of MICAL1 (0.5 μM) on adding Rab8a (40 μM) was determined as 4 fold.

Source of the values: PMC11315924.
